For the assay, the target named is asialoglycoprotein receptor (UniProt P34927). Description: cell-based or functional assay.

The text below walks through data of US20020115216A1.

Where only a bound is given, the exact number is not on record here.

Chain of UniProt P34927 (P34927 whole entry, chain 1 of 2): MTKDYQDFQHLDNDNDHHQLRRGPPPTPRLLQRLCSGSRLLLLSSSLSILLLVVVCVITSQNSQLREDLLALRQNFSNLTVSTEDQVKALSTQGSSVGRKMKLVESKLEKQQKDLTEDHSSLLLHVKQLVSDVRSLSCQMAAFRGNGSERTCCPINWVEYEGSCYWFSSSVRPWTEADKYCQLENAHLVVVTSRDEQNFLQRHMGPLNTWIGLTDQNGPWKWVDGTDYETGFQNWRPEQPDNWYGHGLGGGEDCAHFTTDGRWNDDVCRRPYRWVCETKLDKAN
Chain of UniProt P34927 (P24721 whole entry, chain 2 of 2, further chain): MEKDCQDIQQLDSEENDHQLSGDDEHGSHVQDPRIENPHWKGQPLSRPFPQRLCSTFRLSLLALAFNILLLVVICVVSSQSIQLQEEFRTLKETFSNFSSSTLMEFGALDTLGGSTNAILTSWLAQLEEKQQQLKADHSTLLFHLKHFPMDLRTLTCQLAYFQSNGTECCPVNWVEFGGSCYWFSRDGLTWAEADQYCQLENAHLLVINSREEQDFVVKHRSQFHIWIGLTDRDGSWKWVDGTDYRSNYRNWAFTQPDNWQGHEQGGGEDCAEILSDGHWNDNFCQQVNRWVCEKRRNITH

Take “asialofetuin (from UniProt P12763 19-359) (ligand)”: the inhibition of uptake/expression of the cis pT/GFP/SB in the liver (confocal microscopy of GFP, mice coadministered asialofetuin) is above 80%.
